Measurements taken from article PMC7870846, “Incorporation of sensing modalities into de novo designed fluorescence-activating proteins” (Nature Communications, 2021).
Blank lines part the entries; values can stand above or below the molecule they belong to.

Legend:
[1] = Ca2+-responsive mFAP Ca2+ titrations; assay type: binding
Method: In measuring Ca^2+ affinity of mFAPs on a Synergy Neo2 hybrid multi-mode reader (Fig. 4d, e, f and Supplementary Figs. 10c, f, i, 11c, f, i, 13c, f, i, 16b), large-scale purified proteins[49] were aliquoted in technical triplicate to a final concentration of 500 nM with 5.00 μM DFHBI in eleven serial dilutions ( 10 dilution factor) of CaCl2 (Sigma Aldrich) starting from either 900 mM or 90.0 mM CaCl2 (diluted using high-salt Tev cleavage buffer) including a twelfth condition without CaCl2. Final volumes were 200 μL in flat bottom, black polystyrene, non-binding surface 96-well microplates (Corning 3650). Fluorescence endpoints were measured using excitation wavelength λex = 484 nm and emission wavelength λem = 508 nm. Background fluorescence endpoints of wells with identical chromophore and CaCl2 concentrations lacking protein (substituted for equivalent volumes of high-salt Tev cleavage buffer) were measured in technical triplicate, averaged per condition, and subtracted from protein measurement averages of the same conditions.
For Ca^2+ titrations of EF4n_mFAP2a and EF4n_mFAP2b (Supplementary Fig. 13c), a small amount of Chelex 100 sodium form (Sigma Aldrich) was added to purified protein (produced by large-scale protein purification and SEC purification[49]) and nutated at 4 °C overnight. EF4n_mFAP2a was aliquoted in technical triplicate to a final concentration of 8.00 μM with 80.0 μM DFHBI and EF4n_mFAP2b was aliquoted in technical triplicate to a final concentration of 6.25 μM with 43.4 μM DFHBI, in eleven serial dilutions ( 10 dilution factor) of CaCl2 starting from 9.00 mM or 4.00 mM CaCl2 (diluted using high-salt Tev cleavage buffer pre-treated with Chelex 100) including a twelfth condition without CaCl2. Final volumes were 25.0 μL in flat bottom, black polystyrene, non-binding surface 96-well half-area microplates (Corning 3686) or 200 μL in flat bottom, black polystyrene, non-binding surface 96-well microplates (Corning 3650). Fluorescence endpoints were measured for EF4n_mFAP2a using excitation wavelength λex = 478 nm and emission wavelength λem = 520 nm, and for EF4n_mFAP2b using excitation wavelength λex = 484 nm and emission wavelength λem = 508 nm. Background fluorescence endpoints of wells with identical chromophore and CaCl2 concentrations lacking protein (substituted for equivalent volumes of high-salt Tev cleavage buffer) were measured in technical triplicate, averaged per condition, and subtracted from protein measurement averages of the same conditions. For non-linear least squares fitting to obtain Kd values, means were fit to a single-binding site isotherm function where Ca^2+-binding sites were modeled independently with a Hill coefficient of 1.

[2] = Photophysical characterization: absorbance, excitation/emission spectra, extinction coefficients, quantum yields; assay type: physicochemical
Method: Protein preparation: mFAP2a, mFAP2b, and mFAP10 were produced by large-scale protein purification and SEC purification, and dialyzed overnight into DPBS that was adjusted to pH 7.40 using NaOH.
Chromophore preparation: DFHBI (Lucerna) and DFHBI-1T (Lucerna) were dissolved to 20.0 mM in 100% DMSO, and diluted in DPBS (pH 7.40) to measure absorbances on a Jasco V-750 spectrophotometer at peak absorbance wavelengths (417 nm for DFHBI and 422 nm for DFHBI-1T). Following background subtraction of identical buffer without chromophore, Beer’s Law was used to calculate the molar chromophore concentrations of the stock solutions using previously reported extinction coefficients.
Preparation of protein–chromophore complexes: For quantum yield measurements, 1.00 μM, 836 nM, or 919 nM chromophore solutions in DPBS (pH 7.40) at 4.00 mL final volumes were prepared for the following eight conditions: DFHBI only, DFHBI-1T only, 43.5 µM 6xHis-mFAP10 with DFHBI, 43.5 µM 6xHis-mFAP10 with DFHBI-1T, 134 μM 6xHis-mFAP2a with DFHBI, 134 μM 6xHis-mFAP2a with DFHBI-1T, 206 μM 6xHis-mFAP2b with DFHBI, and 206 μM 6xHis-mFAP2b with DFHBI-1T.
Extinction coefficients: Absorbance spectra of protein–chromophore complexes were first measured with a Thermo Scientific BioMate 3S UV–Vis Spectrophotometer (1 nm interval, 800 nm min^−1). The extinction coefficients were then calculated using Beer’s Law:12 A=ε⋅b⋅c, where A is peak absorbance, ε is extinction coefficient, b is path length (1 cm), and c is concentration (1.00 μM, 836 nM, or 919 nM).
Relative quantum yield: A Perkin-Elmer LS-B Luminescence Spectrophotometer (10 nm bandwidth, 1 nm interval, 100 nm min^−1) was used. The fluorescence emission spectra of the protein–chromophore complexes (in DPBS, pH 7.40) and reference dye Acridine Yellow G (in methanol) were first obtained, and the quantum yield was then calculated using the equation[53]:13 ϕc=ϕr⋅1−10^−Ar(λex)/1−10^−Ac(λex)⋅∫Fc(λ)⋅dλ/∫Fr(λ)⋅dλ⋅nc2/nr2, where ϕ is quantum yield, A(λex) is absorbance at the excitation wavelength λex ( λex = 440 nm), F is fluorescence emission, n is refractive index of the solution (1.3350 for DPBS at pH 7.40 and 1.3284 for methanol), and the subscripts “c” and “r” refer to the protein–chromophore complex measured and the reference dye, respectively. […]
Absolute quantum yield: An integrating sphere instrument (Hamamatsu C9920-12) (6 nm excitation bandwidth, 1 nm interval) and a high-sensitivity photonic multi-channel analyzer (Hamamatsu C10027-01) were used to measure a light emission spectrum. Absolute quantum yields were measured for solutions of protein–chromophore complexes in DPBS (pH 7.40) in which ≥95% of the total chromophore was occupying the protein-binding pocket (Table 1). […]

[3] = In vitro chromophore titration with DFHBI (fluorescence, single-binding site isotherm fit)
Method: Fluorescence endpoints were measured on a Synergy Neo2 hybrid multi-mode reader (BioTek) in flat bottom, black polystyrene, non-binding surface 96-well microplates (Corning 3650). In measuring chromophore-binding affinities (Fig. 1d, e), mFAP2, mFAP2a, and mFAP2b, and mFAP10 were produced by large-scale protein purification and SEC purification. Proteins were aliquoted in eight technical replicates in 200 μL final volumes to 20.0 nM final concentration in ten serial dilutions ( 10 dilution factor) of DFHBI starting from 31.6 μM DFHBI or 31.6 μM DFHBI-1T final concentrations, including an eleventh condition without chromophore. Fluorescence was excited at λex = 468 nm and fluorescence emission measured at λem = 530 nm. Background fluorescence endpoints of wells with identical chromophore concentrations but purified protein replaced with an identical volume of high-salt Tev cleavage buffer were measured, and fluorescence endpoints subtracted from those measured with protein. Background-subtracted data were averaged and the means normalized from 0 to 1 and fit to a single-binding site isotherm function using non-linear least squares fitting to obtain a fitted Kd value (Table 1), and the fit scaled to the maximum mean value (Fig. 1d, e).

[4] = Fluorescence intensity assays of mFAP variants; assay type: biochemical
Method: To measure fluorescence intensities of the phenolate form of chromophores, fluorescence was measured on a Synergy Neo2 hybrid multi-mode reader (BioTek) in flat bottom, black polystyrene, non-binding surface 96-well microplates (Corning 3650). Fluorescence intensity was measured in triplicate by exciting at λex = 484 nm and measuring fluorescence emission at λem = 505 nm (or λem = 511 nm for clones harboring the W27 mutation) (Supplementary Fig. 1g, h). The W27 mutation redshifts the peak emission wavelength from λem = ~505 nm to λem = ~511 nm, presumably due to the W27 indole ring donating a hydrogen bond to the imidazolinone moiety of the deprotonated state of DFHBI, which stabilizes the chromophore conjugated π–electron system in the excited state causing the redshift in emission. Fifteen microliters of small-scale purified protein[49] was combined with 185 μL of Na2HPO4-citrate (pH 7.36) buffer supplemented with 150 mM NaCl and 108 nM DFHBI for a final concentration of 100 nM DFHBI. In measuring the excitation spectra from λem = 525 nm of each clone in triplicate (Supplementary Fig. 1i), 30.0 μL of large-scale purified protein[49] was combined with 170 μL of 25.0 mM Tris (pH 8.00) supplemented with 100 mM NaCl and 914 nM DFHBI for a final concentration of 7.77 μM protein and 777 nM DFHBI. In measuring the fluorescence intensity at λex = 484 nm and λem = 509 nm of each clone in triplicate (Supplementary Fig. 1j), 30.0 μL of large-scale purified protein[49] was combined with 170 μL of 25.0 mM Tris (pH 8.00) supplemented with 100 mM NaCl and 653 nM DFHBI for a final concentration of 5.55 μM protein and 555 nM DFHBI. In measuring fluorescence intensity at λex = 468 nm and λem = 530 nm of each clone in technical triplicate (Supplementary Fig. 1k), 24.0 μL of 35.4 µM large-scale purified protein[49] was combined with 1.00 μL of 1.25 µM DFHBI or 1.00 μL of 1.25 µM DFHBI-1T (Lucerna) (from […] chromophore stock solutions dissolved in 0.5% DMSO and 99.5% high-salt Tev cleavage buffer [25.0 mM Tris, 100 mM NaCl, pH 8.00]) for final concentrations of 34.0 μM protein and 50.0 nM chromophore. The mFAP9–DFHBI complex had ~1.1-fold the fluorescence intensity of the mFAP10–DFHBI complex, and the mFAP9–DFHBI-1T complex had ~0.75-fold the fluorescence intensity of the mFAP10–DFHBI-1T complex (Supplementary Fig. 1k). In collecting fluorescence emission spectra by exciting fluorescence at λex = 484 nm and collecting fluorescence emission at λem = 495–650 nm (Supplementary Fig. 6b), and in measuring fluorescence endpoints in techincal triplicate at unique peak excitation and emission wavelengths (Supplementary Fig. 6c), 195 μL of large-scale purified protein[49] was combined with 5.00 μL of 25 mM Tris (pH 8.00) supplemented with 100 mM NaCl and 40.0 μM DFHBI for a final concentration of 10.0 μM protein and 1.00 μM DFHBI.
In measuring fluorescence intensity of small-scale purified proteins[49] (Supplementary Table 1), wells were excited at λex = 488 nm for DFHBI and DFHBI-1T and λex = 505 nm for DFHO, and fluorescence emission measured at λem = 510 nm for DFHBI and DFHBI-1T and λem = 545 nm for DFHO. […]

Ca2+-responsiveness / allostery between DFHBI and Ca2+ binding ([1]; Ca2+ titration with excess DFHBI): positive allostery
Kd ([1]; excess DFHBI compared to protein, Hill coefficient of 1): 2.3 mM
B1: EF1p2_mFAP2b: positively allosteric Ca2+-responsive mFAP, one EF-hand motif (protein)
chain: SRAAQLLPGTWQVTMTNEDGQTSQGQWHFQPRSPYTMDIVAQGTISDGRPIVGYGKATVKTPDTLDIDITYPSLGNIKAQGQITMDSPTQFKWDAHYKGDKDGDGYISAAEAAAQGLTGTLQRQE

higher affinity for DFHBI than DFHBI-1T [3]: ~ 39 fold
B2: mFAP2a: mFAP2 variant, "a" for affinity (protein)
chain: SRAAQLLPGTWQATFTNEDGQTSQGQWHFQPRSPYTMDIVAQGTISDGRPIVGYGKATVKTPDTLDIDITYPSLGNIKAQGQITMDSPTQFKWDATTKGENDFHGRLTGTLQRQE
brighter fluorescence with DFHBI-1T than DFHBI [2]: ~ 2.5 fold
brighter fluorescence than mFAP2b ([4]; low-DFHBI concentration (555 nM)): ~ 1.3 fold

B3: mFAP2.3: brightest variant of loop7 library (protein)
chain: SRAAQLLPGTWQVTMTNEDGQTSQGQMHFQPRSPYTMDVVAQGTISDGRPIVGYGKVTVKTPDTLDVDITYPSLGNIKAQGQITMDSPTQFKFDATTKGENDFHGRLTGTLQRQE
increase in fluorescence intensity from the phenolate form of DFHBI from mFAP2.2 ([4]; pH 7.36): ~ 1.1 fold

higher affinity for DFHBI than DFHBI-1T [3]: ~ 2.6 fold
B4: mFAP10: variant from the IN2 combinatorial library (protein)
chain: SRAAQLLPGTWQATFTNEDGQTSQGQIHFQPRSPYTMDIVAQGTISDGRPIVGYGKATVKTPDTLDIDITYPSLGNIKAQGQITMDSPTQFKFDATTKGENDFHGRLTGTLQRQE
brighter fluorescence with DFHBI-1T than DFHBI [2]: ~ 12 fold

B5: mFAP3: brightest DFHO-binding variant (protein)
chain: SRAAQLLPGTWQATFTNEDGQTSQGQWHFQPRSPYTMDIVAQGTISDGRPIVGYGKATVKTPDTLDIDITWPSLGNIKGQGQITMDSPTQFKWDGTTKGENDFHGRLTGTLQRQE
fluorescence intensity with DFHO, lower (dimmer) than mFAP2b with DFHBI ([4]; 10.0 µM DFHO vs 10.0 µM DFHBI): ~ 10 fold
